Patent US20200181277A1 (Genmab, published 2020)
Residue numbers refer to the chain shown, from its start. Names and notes keep the numbering of the source. Values belong to the binder of their own block, whether it stands above or below them.

Legend:
purified human C1q [1] = molecular target: T1, purified human C1q (human, UniProt P02745 23-245; P02746 28-253; P02747 29-245); experiment: C1q binding ELISA: plate coated with 1 µg/mL antibody, purified C1q titrated 0.010-30 µg/mL; SD 0.8, n 3
T1 construct: Purified C1q, Quidel Cat # A400; multimer of A, B and C chains
Protocol: (§1) A binding ELISA was performed to evaluate the effect of different substitutions on C1q binding. […] Plates were washed and blocked for 1 hour at RT with 200 μL/well 0.5×PBS supplemented with 0.025% Tween 20 and 0.1% gelatin while shaking. […] The reaction was stopped by the addition of 100 μL 2% oxalic acid. Absorbance was measured at 405 nm in a BioTek EL808 Microplate Reader (BioSPX). Log transformed data were analyzed by fitting sigmoidal dose-response curves with variable slope using GraphPad Prism software.

purified human C1q [2] = molecular target: T1, purified human C1q; experiment: C1q binding ELISA: plate coated with 1 µg/mL antibody, purified C1q titrated 0.010-30 µg/mL; SD 0.1, n 3
Protocol: as §1

purified human C1q [3] = molecular target: T1, purified human C1q; experiment: C1q binding ELISA: plate coated with 1 µg/mL antibody, purified C1q titrated 0.010-30 µg/mL; SD 0.2, n 3
Protocol: as §1

purified human C1q [4] = molecular target: T1, purified human C1q; experiment: C1q binding ELISA (Example 6): plate coated with 1 µg/mL antibody, purified C1q titrated; SD 0.1, n 3
Protocol: as §1

purified human C1q [5] = molecular target: T1, purified human C1q; experiment: C1q binding ELISA (Example 6): plate coated with 1 µg/mL antibody, purified C1q titrated; SD 3.9, n 3
Protocol: as §1

human 4-1BB = human 4-1BB (human, UniProt Q07011 24-255); experiment: cell-based or functional assay
human 4-1BB, sequence (Q07011 24-255): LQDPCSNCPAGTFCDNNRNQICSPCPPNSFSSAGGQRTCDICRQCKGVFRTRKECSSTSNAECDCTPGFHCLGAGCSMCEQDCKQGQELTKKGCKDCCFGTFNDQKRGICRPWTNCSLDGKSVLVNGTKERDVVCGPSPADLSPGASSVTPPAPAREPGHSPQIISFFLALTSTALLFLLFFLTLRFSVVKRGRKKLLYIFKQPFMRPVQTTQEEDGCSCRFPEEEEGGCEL

human CD40 = human CD40 (human, UniProt P25942 21-277); experiment: cell-based or functional assay
human CD40, sequence (P25942 21-277): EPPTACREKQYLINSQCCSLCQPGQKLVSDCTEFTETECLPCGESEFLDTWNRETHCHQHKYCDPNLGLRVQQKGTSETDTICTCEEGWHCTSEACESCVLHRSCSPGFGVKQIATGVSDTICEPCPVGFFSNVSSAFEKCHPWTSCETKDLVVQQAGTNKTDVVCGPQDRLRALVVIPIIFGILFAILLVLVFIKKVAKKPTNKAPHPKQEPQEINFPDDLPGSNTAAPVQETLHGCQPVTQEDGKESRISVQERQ

EC50 (purified human C1q [1]): 1.9 µg/mL
B1: IgG1-hDR5-01-G56T-E333A/P396L/E430G (antibody)
heavy: EVQLQQSGAEVVKPGASVKLSCKASGFNIKDTFIHWVKQAPGQGLEWIGRIDPANTNTKYDPKFQGKATITTDTSSNTAYMELSSLRSEDTAVYYCVRGLYTYYFDYWGQGTLVTVSSASTKGPSVFPLAPSSKSTSGGTAALGCLVKDYFPEPVTVSWNSGALTSGVHTFPAVLQSSGLYSLSSVVTVPSSSLGTQTYICNVNHKPSNTKVDKRVEPKSCDKTHTCPPCPAPELLGGPSVFLFPPKPKDTLMISRTPEVTCVVVDVSHEDPEVKFNWYVDGVEVHNAKTKPREEQYNSTYRVVSVLTVLHQDWLNGKEYKCKVSNKALPAPIAKTISKAKGQPREPQVYTLPPSREEMTKNQVSLTCLVKGFYPSDIAVEWESNGQPENNYKTTPLVLDSDGSFFLYSKLTVDKSRWQQGNVFSCSVMHGALHNHYTQKSLSLSPGK
light: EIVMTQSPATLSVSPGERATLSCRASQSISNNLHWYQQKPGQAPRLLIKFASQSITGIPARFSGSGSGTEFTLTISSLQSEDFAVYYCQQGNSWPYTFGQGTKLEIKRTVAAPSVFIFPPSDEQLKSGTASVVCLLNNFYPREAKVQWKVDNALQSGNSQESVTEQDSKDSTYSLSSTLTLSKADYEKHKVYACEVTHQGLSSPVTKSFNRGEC
notes: IgG1,kappa

EC50 (purified human C1q [2]): 0.8 µg/mL
B2: IgG1-hDR5-01-G56T-K326A/E333A/E430G (antibody)
heavy: B1 heavy with K327A, L397P
light: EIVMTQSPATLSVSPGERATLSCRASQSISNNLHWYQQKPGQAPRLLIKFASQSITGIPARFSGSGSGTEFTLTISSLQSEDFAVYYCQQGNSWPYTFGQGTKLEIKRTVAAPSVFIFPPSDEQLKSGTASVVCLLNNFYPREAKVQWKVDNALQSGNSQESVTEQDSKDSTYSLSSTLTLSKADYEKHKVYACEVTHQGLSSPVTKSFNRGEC
notes: IgG1,kappa

EC50 (purified human C1q [3]): 1.3 µg/mL
B3: IgG1-hDR5-01-G56T-K326A/E333A/P396L/E430G (antibody)
heavy: B1 heavy with K327A
light: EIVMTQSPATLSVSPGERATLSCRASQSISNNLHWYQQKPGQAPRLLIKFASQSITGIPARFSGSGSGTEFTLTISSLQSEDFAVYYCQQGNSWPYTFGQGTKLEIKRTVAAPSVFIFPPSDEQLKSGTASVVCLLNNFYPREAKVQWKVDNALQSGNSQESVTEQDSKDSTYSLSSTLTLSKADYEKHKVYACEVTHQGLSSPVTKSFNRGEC
notes: IgG1,kappa

EC50 (purified human C1q [2]): 0.6 µg/mL
B4: IgG1-hDR5-01-G56T-K326A/P396L/E430G (antibody)
heavy: B1 heavy with K327A, A334E
light: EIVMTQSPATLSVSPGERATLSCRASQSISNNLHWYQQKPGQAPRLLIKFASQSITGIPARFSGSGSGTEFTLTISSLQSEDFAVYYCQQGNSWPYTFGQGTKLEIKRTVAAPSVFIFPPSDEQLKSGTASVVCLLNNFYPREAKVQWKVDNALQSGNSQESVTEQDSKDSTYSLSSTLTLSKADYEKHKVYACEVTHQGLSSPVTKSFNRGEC
notes: IgG1,kappa

EC50 (purified human C1q [4]): 0.5 µg/mL
B5: IgG1-hDR5-01-G56T-S267E/H268F/S324T/E430G (antibody)
heavy: B1 heavy with S268E, H269F, S325T, A334E, L397P
light: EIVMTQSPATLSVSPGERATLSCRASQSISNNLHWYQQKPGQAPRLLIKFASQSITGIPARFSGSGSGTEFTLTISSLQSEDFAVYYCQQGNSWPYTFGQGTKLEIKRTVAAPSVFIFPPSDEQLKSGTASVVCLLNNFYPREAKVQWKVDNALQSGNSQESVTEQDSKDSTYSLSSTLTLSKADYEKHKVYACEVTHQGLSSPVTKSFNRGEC
notes: IgG1,kappa

EC50 (purified human C1q [5]): 11.4 µg/mL
B6: IgG113F-hDR5-01-G56T-E430G (antibody)
heavy: B1 heavy with K275Q, N277K, Y301F, A334E, A340T, N385S, K393N, L397P, V398M, V423I
light: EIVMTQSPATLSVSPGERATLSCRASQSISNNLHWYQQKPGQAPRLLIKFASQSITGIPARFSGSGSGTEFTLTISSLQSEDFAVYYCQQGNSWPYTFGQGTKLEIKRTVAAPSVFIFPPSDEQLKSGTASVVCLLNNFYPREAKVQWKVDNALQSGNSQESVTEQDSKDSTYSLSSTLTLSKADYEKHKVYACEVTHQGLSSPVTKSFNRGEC
notes: also called IgG113F-E430G

4-1BB signaling, luciferase reporter Jurkat cells, EC50 (human 4-1BB): 0.0329 µg/mL
B7: IgG1-BMS-663513-K326W/E333S/E430G (antibody, V domains shown)
VH: QVQLQQWGAGLLKPSETLSLTCAVYGGSFSGYYWSWIRQSPEKGLEWIGEINHGGYVTYNPSLESRVTISVDTSKNQFSLKLSSVTAADTAVYYCARDYGPGNYDWYFDLWGRGTLVTVSS
VL: EIVLTQSPATLSLSPGERATLSCRASQSVSSYLAWYQQKPGQAPRLLIYDASNRATGIPARFSGSGSGTDFTLTISSLEPEDFAVYYCQQRSNWPPALTFGGGTKVEIK

CD40 response, luciferase reporter cells, EC50 (human CD40): 3.36 µg/mL
B8: IgG1-CD40-SGN40 (antibody)
heavy: not shown
VL: DIQMTQSPSSLSASVGDRVTITCRSSQSLVHSNGNTFLHWYQQKPGKAPKLLIYTVSNRFSGVPSRFSGSGSGTDFTLTISSLQPEDFATYFCSQTTHVPWTFGQGTKVEIK

CD40 response, luciferase reporter cells, EC50 (human CD40): 0.018 µg/mL
B9: IgG1-CD40-SGN40-K326W/E333S/E430G (antibody)
heavy: EVQLVESGGGLVQPGGSLRLSCAASGYSFTGYYIHWVRQAPGKGLEWVARVIPNAGGTSYNQKFKGRFTLSVDNSKNTAYLQMNSLRAEDTAVYYCAREGIYWWGQGTLVTVSSASTKGPSVFPLAPSSKSTSGGTAALGCLVKDYFPEPVTVSWNSGALTSGVHTFPAVLQSSGLYSLSSVVTVPSSSLGTQTYICNVNHKPSNTKVDKRVEPKSCDKTHTCPPCPAPELLGGPSVFLFPPKPKDTLMISRTPEVTCVVVDVSHEDPEVKFNWYVDGVEVHNAKTKPREEQYNSTYRVVSVLTVLHQDWLNGKEYKCKVSNWALPAPISKTISKAKGQPREPQVYTLPPSREEMTKNQVSLTCLVKGFYPSDIAVEWESNGQPENNYKTTPPVLDSDGSFFLYSKLTVDKSRWQQGNVFSCSVMHGALHNHYTQKSLSLSPGK
VL: B8 VL

CD40 response, luciferase reporter cells, EC50 (human CD40): 0.336 µg/mL
B10: IgG1-CD40-SGN40-E430G (antibody)
heavy: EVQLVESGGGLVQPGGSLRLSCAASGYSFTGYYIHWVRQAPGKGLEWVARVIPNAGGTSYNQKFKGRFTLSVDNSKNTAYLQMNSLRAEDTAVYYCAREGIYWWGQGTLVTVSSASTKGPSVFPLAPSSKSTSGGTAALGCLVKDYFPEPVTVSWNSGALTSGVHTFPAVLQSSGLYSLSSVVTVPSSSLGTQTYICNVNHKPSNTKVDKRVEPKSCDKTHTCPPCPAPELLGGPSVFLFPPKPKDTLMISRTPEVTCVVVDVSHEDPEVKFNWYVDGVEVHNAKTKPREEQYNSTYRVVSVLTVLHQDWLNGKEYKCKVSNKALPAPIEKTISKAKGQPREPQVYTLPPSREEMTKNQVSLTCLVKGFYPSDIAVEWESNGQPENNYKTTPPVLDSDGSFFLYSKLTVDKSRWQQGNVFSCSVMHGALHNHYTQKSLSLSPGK
VL: B8 VL

CD40 response, luciferase reporter cells, EC50 (human CD40): 0.187 µg/mL
B11: IgG1-CD40-CP870893 (antibody)
heavy: not shown
VL: DIQMTQSPSSVSASVGDRVTITCRASQGIYSWLAWYQQKPGKAPNLLIYTASTLQSGVPSRFSGSGSGTDFTLTISSLQPEDFATYYCQQANIFPLTFGGGTKVEIK

CD40 response, luciferase reporter cells, EC50 (human CD40): 0.0459 µg/mL
B12: IgG1-CD40-CP870893-K326W/E333S/E430G (antibody)
heavy: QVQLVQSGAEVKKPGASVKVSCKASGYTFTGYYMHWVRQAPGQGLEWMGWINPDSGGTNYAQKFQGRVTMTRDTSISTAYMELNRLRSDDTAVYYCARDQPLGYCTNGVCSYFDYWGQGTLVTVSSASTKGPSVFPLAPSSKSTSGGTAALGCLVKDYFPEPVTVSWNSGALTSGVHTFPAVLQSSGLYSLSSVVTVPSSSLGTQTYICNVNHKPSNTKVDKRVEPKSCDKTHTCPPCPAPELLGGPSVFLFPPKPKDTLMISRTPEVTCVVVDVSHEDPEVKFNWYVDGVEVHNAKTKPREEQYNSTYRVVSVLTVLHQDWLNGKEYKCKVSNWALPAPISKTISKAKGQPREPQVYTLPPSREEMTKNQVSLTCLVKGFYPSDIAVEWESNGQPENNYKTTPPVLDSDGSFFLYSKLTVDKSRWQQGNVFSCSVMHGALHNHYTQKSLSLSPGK
VL: B11 VL
